This assay concerns the target PTH receptor, R^0 and RG conformations (species not stated at the figure legends) (Homo sapiens (Human)) (UniProt Q03431). In words: R0 binding affinity in vitro, table inset of FIG. 18; reference [E19],Mc-hPTH(1-34)OH.

This is an account of results in patent US20110172153A1.

Ends that are not written are not given here.

Consider AVAEIQLMHQRAKWLNSMERVEALRKKLQDVHNF-OH [[A^23,E^19],Mc-hPTH(1-34)OH], for which the fold reduction of binding affinity for R^0 against [E^19 Mc]PTH(1-34) was found to be 10 fold.
